Measured values as given in article PMC8748714 (2022).
Changes are numbered by the printed parent chain. In names and notes the source's numbering stands. Like-named read-outs stand apart in the source and are kept apart here.

Key:
[1] = target: cMyc-GLP-1R Y148A (human) (UniProt P43220)
exendin-P5 [2] = experiment: radioligand competition binding on whole cells; details: parent: est. 0; read off a plot
exendin-P5 [3] = experiment: radioligand competition binding on whole cells; details: parent: est. 0; read off a plot; remark: listed apart in the source
[4] = target: GLP-1R Q211A (Homo sapiens)
[5] = target: GLP-1R E138A (Homo sapiens)
[6] = target: cMyc-GLP-1R Y148A (human) (UniProt P43220); remark: listed apart in the source
[7] = target: GLP-1R M204A (Homo sapiens)
[8] = target: GLP-1R L144A (Homo sapiens)
[9] = target: cMyc-GLP-1R R190A (human) (UniProt P43220)
[10] = target: GLP-1R S206A (Homo sapiens)
[11] = target: GLP-1R H212A (Homo sapiens)
[12] = target: GLP-1R S193A (Homo sapiens)
[13] = target: wild-type cMyc-GLP-1R (human) (UniProt P43220)
[14] = target: GLP-1R Q210A (Homo sapiens)
[15] = target: GLP-1R Y205A (Homo sapiens)
[16] = target: cMyc-GLP-1R K197A (human) (UniProt P43220)
[17] = target: GLP-1R L142A (Homo sapiens)
[18] = target: GLP-1R L141A (Homo sapiens)
[19] = target: cMyc-GLP-1R Y152A (human) (UniProt P43220)
[20] = target: GLP-1R L201A (Homo sapiens)
[21] = target: GLP-1R D198A (Homo sapiens)
[22] = target: GLP-1R K202A (Homo sapiens)
[23] = target: GLP-1R Y145A (Homo sapiens)
[24] = target: GLP-1R P137A (Homo sapiens)
[25] = target: GLP-1R V194A (Homo sapiens)
exendin-4, P26349 = experiment: radioligand competition binding on whole cells; details: chain shown with the change;; parent: est. 0; read off a plot

Molecule: exendin-P5
- IC50 (GLP-1R Y145A): 0.0468 µM
- IC50 (GLP-1R H212A): 0.282 µM
- IC50 (GLP-1R Y205A): 0.0692 µM
- IC50 (GLP-1R L144A): 0.257 µM
- IC50 (GLP-1R S193A): 0.0759 µM
- IC50 (GLP-1R Q210A): 0.501 µM
- IC50 (GLP-1R V194A): 0.182 µM
- IC50 (GLP-1R S206A): 0.269 µM
- IC50 (GLP-1R M204A): 0.0676 µM
- IC50 (GLP-1R D198A): 0.191 µM
- IC50 (GLP-1R Q211A): 0.24 µM
- IC50 (GLP-1R E138A): 0.0603 µM
- IC50 (GLP-1R L142A): 0.537 µM
- IC50 (GLP-1R L141A): 0.102 µM
- IC50 (GLP-1R K202A): 0.17 µM
- IC50 (GLP-1R P137A): 0.437 µM
- IC50 [1]: 0.135 µM
- IC50 (GLP-1R L201A): 0.251 µM

Molecule: wild-type cMyc-GLP-1R (from UniProt P43220) E364A
- log10 ratio (exendin-P5 [2]): -0.95 pIC50 ΔWT
- log10 ratio (exendin-P5 [3]): -1 pIC50 ΔWT

Molecule: exendin-4 (from UniProt P26349 48-87)
- IC50 [4]: 0.00437 µM
- IC50 [5]: 0.000661 µM
- IC50 [6]: 0.00776 µM
- IC50 [7]: 0.0178 µM
- IC50 [8]: 0.000741 µM
- IC50 [9]: 0.407 µM
- IC50 [10]: 0.00219 µM
- IC50 [11]: 0.000479 µM
- IC50 [12]: 0.00138 µM
- IC50 [13]: 0.000891 µM
- IC50 [14]: 0.00209 µM
- IC50 [15]: 0.00891 µM
- IC50 [16]: 0.0251 µM
- IC50 [17]: 0.000692 µM
- IC50 [18]: 0.0049 µM
- IC50 [19]: 0.038 µM
- IC50 [20]: 0.00347 µM
- IC50 [21]: 0.162 µM
- IC50 [22]: 0.00191 µM
- IC50 [23]: 0.000617 µM
- IC50 [24]: 0.00389 µM
- IC50 [25]: 0.0117 µM

Molecule: wild-type cMyc-GLP-1R (from UniProt P43220) W297A
- log10 ratio (exendin-P5 [2]): -1.3 pIC50 ΔWT
- log10 ratio (exendin-P5 [3]): -1.2 pIC50 ΔWT

Molecule: wild-type cMyc-GLP-1R (from UniProt P43220) E387A
- log10 ratio (exendin-P5 [2]): -1.1 pIC50 ΔWT
- log10 ratio (exendin-P5 [3]): -1.1 pIC50 ΔWT

B1: wild-type cMyc-GLP-1R, P43220 K197A (protein)
chain: RPQGATVSLWETVQKWREYRRQCQRSLTEDPPPATDLFCNRTFDEYACWPDGEPGSFVNVSCPWYLPWASSVPQGHVYRFCTAEGLWLQKDNSSLPWRDLSECEESKRGERSSPEEQLLFLYIIYTVGYALSFSALVIASAILLGFRHLHCTRNYIHLNLFASFILRALSVFIADAALKWMYSTAAQQHQWDGLLSYQDSLSCRLVFLLMQYCVAANYYWLLVEGVYLYTLLAFSVLSEQWIFRLYVSIGWGVPLLFVVPWGIVKYLYEDEGCWTRNSNMNYWLIIRLPILFAIGVNFLIFVRVICIVVSKLKANLMCKTDIKCRLAKSTLTLIPLLGTHEVIFAFVMDEHARGTLRFIKLFTELSFTSFQGLMVAILYCFVNNEVQLEFRKSWERWRLEHLHIQRDSSMKPLKCPTSSLSSGATAGSSMYTATCQASCS
- log10 ratio (exendin-4, P26349): -1.5 pIC50 ΔWT

B2: wild-type cMyc-GLP-1R, P43220 R190A (protein)
chain: B1 chain with R167A, A174K
- log10 ratio (exendin-4, P26349): -2.6 pIC50 ΔWT

B3: wild-type cMyc-GLP-1R, P43220 W297A (protein)
chain: B1 chain with A174K, W274A
- log10 ratio (exendin-4, P26349): -1.5 pIC50 ΔWT
